Reference: US20110294982A1 (Ablynx, published 2011)

Molecular target: T1, recombinant VLA-5 (α5β1 integrin) (UniProt P08648 42-995; P05556 21-728, limits assumed)
T1 construct: also called α5β1 (VLA-5) integrin; a5β1 integrin
Assay: ELISA, integrin coated at 0.5 µg/well
Experimental: FIG. 3: Direct binding of VHH-H6 to recombinant α3β1 integrin. Recombinant VLA-3 (α3β1 integrin) or recombinant VLA-5 (a5β1 integrin) were coated into Maxisorb plates at 0.5 μg/well, and binding with VHH-H6 or no VHH (in which anti-Myc was used) was assayed in ELISA. Binding of the VHHs to the integrins is expressed as absorbance at 450 nm. Data represents the mean±standard deviation of three independent experiments

T1 sequence (P08648 42-995 limits assumed, chain 1 of 2): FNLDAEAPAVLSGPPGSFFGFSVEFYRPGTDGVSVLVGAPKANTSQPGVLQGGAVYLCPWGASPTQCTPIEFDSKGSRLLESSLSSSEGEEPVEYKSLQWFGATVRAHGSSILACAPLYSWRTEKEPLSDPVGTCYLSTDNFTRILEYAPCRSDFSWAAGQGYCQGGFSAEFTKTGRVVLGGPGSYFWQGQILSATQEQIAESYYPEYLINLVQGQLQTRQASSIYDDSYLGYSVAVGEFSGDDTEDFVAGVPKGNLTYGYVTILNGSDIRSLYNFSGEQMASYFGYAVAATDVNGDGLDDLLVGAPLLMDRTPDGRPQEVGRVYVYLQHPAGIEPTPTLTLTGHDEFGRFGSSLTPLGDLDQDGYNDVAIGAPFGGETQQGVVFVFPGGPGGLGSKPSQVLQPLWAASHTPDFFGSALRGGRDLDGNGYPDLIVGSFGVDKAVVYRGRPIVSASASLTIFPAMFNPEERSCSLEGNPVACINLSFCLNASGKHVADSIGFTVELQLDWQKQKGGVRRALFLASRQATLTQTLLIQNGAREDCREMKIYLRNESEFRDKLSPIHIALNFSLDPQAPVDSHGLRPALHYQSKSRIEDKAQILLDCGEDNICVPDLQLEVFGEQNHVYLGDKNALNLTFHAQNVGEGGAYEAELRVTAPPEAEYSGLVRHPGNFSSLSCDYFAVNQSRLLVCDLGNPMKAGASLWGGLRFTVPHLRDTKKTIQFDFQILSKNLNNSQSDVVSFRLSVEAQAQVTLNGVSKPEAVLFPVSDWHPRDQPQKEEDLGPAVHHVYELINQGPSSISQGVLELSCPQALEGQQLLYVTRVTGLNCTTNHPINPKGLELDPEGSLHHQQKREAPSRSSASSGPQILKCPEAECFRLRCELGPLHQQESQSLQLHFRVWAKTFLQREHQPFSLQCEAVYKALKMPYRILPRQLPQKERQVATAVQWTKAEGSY
T1 sequence (P05556 21-728 limits assumed, chain 2 of 2): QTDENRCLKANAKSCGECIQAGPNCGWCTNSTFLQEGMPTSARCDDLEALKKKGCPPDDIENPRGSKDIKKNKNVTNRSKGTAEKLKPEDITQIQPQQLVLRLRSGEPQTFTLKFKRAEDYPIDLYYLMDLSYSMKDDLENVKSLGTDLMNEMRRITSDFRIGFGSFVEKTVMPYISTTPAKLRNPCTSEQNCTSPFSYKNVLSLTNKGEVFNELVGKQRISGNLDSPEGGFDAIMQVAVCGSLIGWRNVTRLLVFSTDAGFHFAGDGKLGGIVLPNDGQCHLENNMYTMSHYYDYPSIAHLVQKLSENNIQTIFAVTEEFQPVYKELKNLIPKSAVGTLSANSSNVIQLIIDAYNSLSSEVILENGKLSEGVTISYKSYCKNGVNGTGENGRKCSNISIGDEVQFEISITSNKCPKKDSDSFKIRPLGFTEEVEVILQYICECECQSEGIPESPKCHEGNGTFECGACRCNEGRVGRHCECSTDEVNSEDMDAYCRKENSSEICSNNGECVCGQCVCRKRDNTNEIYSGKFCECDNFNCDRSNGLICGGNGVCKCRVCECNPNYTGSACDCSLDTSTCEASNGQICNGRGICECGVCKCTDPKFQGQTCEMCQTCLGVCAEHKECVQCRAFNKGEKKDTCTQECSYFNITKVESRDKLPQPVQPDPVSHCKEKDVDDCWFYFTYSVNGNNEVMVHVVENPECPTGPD

| binding result | Binder |
| --- | --- |
| no binding | VHH-H6 (VHH, Used with a Myc tag (captured/detected with anti-Myc 9E10) and a C-terminal His6 tag (detected with anti-HIS6 (C-term)); also called H6-VHH) VHH: QVQLQDSGGGLVQAGGSLRLSCEASGRTFSSYAMGWFRQPPGKEREWVSTISRSGSAIYAYPVKGRFTMSRDNAKNTVYLEMNSLKPEDTAVFYCAAARSGVPSSRPTDYDYWGQGTQVTVSS |

Molecular target: T2, recombinant human alphavbeta6 (human, UniProt P06756 31-992; P18564 22-707, limits assumed)
T2 construct: Bought, carrier free (R&D Systems 3817-AV/CF); also called aVb6
Assay: specificity ELISA on coated integrins, periplasmic extract

T2 sequence (P06756 31-992 limits assumed, chain 1 of 2): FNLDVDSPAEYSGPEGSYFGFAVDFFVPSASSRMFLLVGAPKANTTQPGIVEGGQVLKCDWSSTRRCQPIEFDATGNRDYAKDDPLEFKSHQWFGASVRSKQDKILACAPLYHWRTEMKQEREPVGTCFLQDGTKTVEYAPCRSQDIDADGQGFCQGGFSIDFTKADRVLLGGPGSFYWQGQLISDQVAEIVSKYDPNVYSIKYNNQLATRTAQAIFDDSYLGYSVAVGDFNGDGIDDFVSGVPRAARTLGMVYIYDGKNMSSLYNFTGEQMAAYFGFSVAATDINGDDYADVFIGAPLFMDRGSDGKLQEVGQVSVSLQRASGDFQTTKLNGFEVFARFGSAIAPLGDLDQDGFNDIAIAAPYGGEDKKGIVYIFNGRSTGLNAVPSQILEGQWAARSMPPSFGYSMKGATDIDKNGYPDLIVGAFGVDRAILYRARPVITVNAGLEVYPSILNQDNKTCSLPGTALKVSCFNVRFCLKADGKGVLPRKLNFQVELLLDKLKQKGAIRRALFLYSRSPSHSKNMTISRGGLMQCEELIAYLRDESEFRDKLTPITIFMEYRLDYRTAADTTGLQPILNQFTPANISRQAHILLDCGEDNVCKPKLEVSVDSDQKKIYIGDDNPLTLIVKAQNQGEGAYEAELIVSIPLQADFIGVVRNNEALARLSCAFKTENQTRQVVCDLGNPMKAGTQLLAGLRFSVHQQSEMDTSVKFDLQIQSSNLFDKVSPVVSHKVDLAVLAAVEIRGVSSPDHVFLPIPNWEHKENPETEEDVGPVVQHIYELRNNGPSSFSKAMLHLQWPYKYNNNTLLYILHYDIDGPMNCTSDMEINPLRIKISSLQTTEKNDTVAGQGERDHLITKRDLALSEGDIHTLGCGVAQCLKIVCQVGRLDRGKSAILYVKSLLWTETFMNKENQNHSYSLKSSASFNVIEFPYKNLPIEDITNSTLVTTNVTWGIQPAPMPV
T2 sequence (P18564 22-707 limits assumed, chain 2 of 2): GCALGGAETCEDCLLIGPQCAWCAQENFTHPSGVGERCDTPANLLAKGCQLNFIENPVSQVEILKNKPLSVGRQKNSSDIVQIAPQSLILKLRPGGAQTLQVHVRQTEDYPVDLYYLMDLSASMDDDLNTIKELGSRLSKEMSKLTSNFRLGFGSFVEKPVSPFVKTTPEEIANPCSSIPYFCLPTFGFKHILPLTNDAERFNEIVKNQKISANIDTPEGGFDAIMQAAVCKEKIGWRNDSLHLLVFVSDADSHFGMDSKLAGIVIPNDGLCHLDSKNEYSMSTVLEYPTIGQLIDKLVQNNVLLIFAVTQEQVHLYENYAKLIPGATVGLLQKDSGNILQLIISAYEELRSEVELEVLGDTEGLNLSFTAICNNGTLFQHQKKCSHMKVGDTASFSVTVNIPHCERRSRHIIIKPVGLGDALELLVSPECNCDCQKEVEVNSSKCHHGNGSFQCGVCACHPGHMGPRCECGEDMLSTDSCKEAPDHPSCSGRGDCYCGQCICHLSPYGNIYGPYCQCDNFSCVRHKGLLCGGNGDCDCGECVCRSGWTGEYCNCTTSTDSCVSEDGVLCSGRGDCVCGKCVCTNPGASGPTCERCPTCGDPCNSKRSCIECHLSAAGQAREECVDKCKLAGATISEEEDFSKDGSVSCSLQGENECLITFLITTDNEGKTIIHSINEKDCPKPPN

| binding result | Binder |
| --- | --- |
| binds | 140-G8 (VHH) VHH: EVQLVESGGGSVQAGGSLRLSCTASGSIFSINDMGWYRQPPGEQRELVATLTSSDSTKYADSVKSRFTISRDNAKNTVYLQMNSLKPEDTAVYYCNAVINRRGDGRNWSREYWGQGTQVTVSS |
| binds | 140-B8 (VHH) VHH: EVQLVESGGGSVQAGGSLRLSCAASQRTFSRDVMGWFRQAPGKERDFVAYSHRSGTTYYADSVKGRFTISRDNAKSTVYLQMNSLKPEDTAVYHCAAGRYGSTSDTLYDYWGQGTQVTVSS |
| binds | 140-H10 (VHH) VHH: EVPLVESGGGSVQAGGSLRLSCAASQRTFSRDVTGWFRQAPGKERDFVAYIHRSGETTYYADSVKGRFTISRDNAKSTVYLQMNSLKPEDTAVYHCAAGRYGSTSDTLYDYWGQGTQVTVSS |
| binds | 140-D4 (VHH) VHH: EVQLVESGGGLVEAGGSLRLSCATSGSTFGIEAMAWYRQAPGKQRELVATINSASRTNYADSVKGRFTISRDTGKSILYLQMNNLEPEDTAVYYCKITTPLPYRRDFWGQGTQVTVSS |
| binds | 140-A10 (VHH) VHH: EVQLVESGGGLVQPGGSLRLSCAASGFTFSRMAMGWYRQAPGVERDFLAIISPGGGTNYADSVKGRFTISRDNAKNTVYLQMNSLKPEDTAVYYCNARNFEGRRVDYWGQGTQVTVSS |

Second part, the binder before the results:

| Binder | binding result |
| --- | --- |
| 140-A5 (VHH) VHH: EVQLVESGGGSVQAGGSLRLSCAASGTTATITVPGWYRQAPGKQRELVAVINSGGTKKYADSVKGRFTISIDNVKRTLYLEMNSLRPEDTAVYYCSTLKYWGQGTQVTVSS | binds |
| 140-E10 (VHH) VHH: EVQLVESGGGLVQAGESLKLSCVASGNILRVTSMGWGRQIPGKQRKLVAWITNEGRTEYADSVKGRFTISRDNAQNTLYLLMNSLKPEDTAVYYCYGFSPRESSGNTYWGQGTQVTVSS | binds |
| 140-H8 (VHH) VHH: EVQLVESGGGLVQAGGSLRLSCAASISANAIDVVSWYRQAPGKPRELAASITSAGRIKYAESVKGRFGISRDNAKNTVSLQMNSLKPEDTAVYYCNALYRNAIYWGQGTQVTVSS | binds |
| 140-F10 (VHH) VHH: EVQLVESGGGSVQAGGSLRLSCAASQRTFSSDVMGWFRQAPGKERDFVAYIHRSGTTYYADSVKGRLTISRDNAKSTVYLQMNSLKPEDTAVYHCAAGRYGSTSDTLYDYWGQGTQVTVSS | binds |
| 140-A2 (VHH) VHH: EVQLVESGGGLVQAGGSLRLSCAASGSTYRLNNMAWYRQSPGKKRELVALISGITSDPSTYYLDSVRGRFSISRDNALNTVYLQMNSLKPEDTAVYYCKQAWAGVEYWGQGTQVTVSS | binds |
